Test results reported in patent US20260337278 (published 2026).
Residue numbers refer to the chain shown, from its start.

Key:
[1] = target: EGFR (wild-type, His-tagged or biotinylated) (human, UniProt P00533); test: BLI
EGFRvIII = EGFRvIII (human, UniProt P00533); test: BLI

B1: SI-95X58 (antibody)
chain 1: not shown
chain 2: EIVLTQSPSTLSVSPGERATFSCRASQSIGTNIHWYQQKPGKPPRLLIKYASESISGIPDRFSGSGSGTEFTLTISSVQSEDFAVYYCQQNNNWPTTFGPGTKLTVLRTVAAPSVFIFPPSDEQLKSGTASVVCLLNNFYPREAKVQWKVDNALQSGNSQESVTEQDSKDSTYSLSSTLTLSKADYEKHKVYACEVTHQGLSSPVTKSFNRGECGGGGSGGGGGSGGGGSGGGGSQVQLQESGPSLVKPSQTLSLTCTVSGYSITSDFAWNWIRQFPGRKLEWMGYISYSGNTRYNPSLKSRFTISRDTSKNQFYLKLRSVTIADTAVYYCVTAGRGFPYWGQGTLVTVSSGGGGSGGGGSGGGGSDIVMTQSPSSVSLSLGDRVTITCHSSQDINSNIGWLQQKPGKAFKGLIYHGTNLDDGVPSRFSGSGSGADYTLTISSLQAEDFATYYCVQYAQFPWTFGPGTKLEIK
Work on B1 yielded a Kd [1] of 16 nM and a Kd (EGFRvIII) of 0.807 nM.

B2: SI-95X59 (antibody)
chain 1: not shown
chain 2: B1 chain 2
B2 gave a Kd [1] of 23.6 nM and a Kd (EGFRvIII) of 1.03 nM.

B3: SI-95X57 (antibody)
chain 1: not shown
chain 2: B1 chain 2
Binder B3 has a Kd [1] of 0.768 nM and a Kd (EGFRvIII) of 0.549 nM.

B4: SI-95X60 (antibody)
chain 1: not shown
chain 2: B1 chain 2
In the case of B4, the Kd [1] is reported as 4.98 nM and the Kd (EGFRvIII) is reported as 1.95 nM.

B5: SI-95X62 (antibody)
chain 1: not shown
chain 2: B1 chain 2 with N92F
With B5 the Kd [1] was 8.16 nM and the Kd (EGFRvIII) was 1.02 nM.

B6: SI-95X46 (antibody)
chain 1: not shown
chain 2: EIVLTQSPSTLSVSPGERATFSCRASQSIGTNIHWYQQKPGKPPRLLIKYASESISGIPDRFSGSGSGTEFTLTISSVQSEDFAVYYCQQNNNWPTTFGPGTKLTVLRTVAAPSVFIFPPSDEQLKSGTASVVCLLNNFYPREAKVQWKVDNALQSGNSQESVTEQDSKDSTYSLSSTLTLSKADYEKHKVYACEVTHQGLSSPVTKSFNRGEC
Binder B6 has a Kd [1] of 7.3 nM and a Kd (EGFRvIII) of 0.358 nM.

B7: SI-95X50 (antibody)
chain 1: not shown
chain 2: B6 chain 2
With B7 the Kd [1] was 1.38 nM and the Kd (EGFRvIII) was 0.207 nM.

B8: SI-95X47 (antibody)
chain 1: not shown
chain 2: B6 chain 2
B8 showed a Kd [1] of 20.6 nM and a Kd (EGFRvIII) of 0.272 nM.

B9: SI-95X45 (antibody)
chain 1: not shown
chain 2: B6 chain 2
B9 showed a Kd [1] of 4.61 nM and a Kd (EGFRvIII) of 1.11 nM.

B10: SI-95X49 (antibody)
chain 1: not shown
chain 2: B6 chain 2 with N92F
With B10 the Kd [1] was 17.6 nM and the Kd (EGFRvIII) was 0.291 nM.

B11: SI-95X48 (antibody)
chain 1: not shown
chain 2: B6 chain 2
In the case of B11, the Kd [1] is reported as 25.5 nM and the Kd (EGFRvIII) is reported as 0.404 nM.

B12: SI-95X40 (antibody)
chain 1: not shown
chain 2: DIQMTQSPSSLSASVGDRVTITCRSSQNIVHSNGNTYLDWYQQTPGKAPKLLIYKVSNRFSGVPSRFSGSGSGTDFTFTISSLQPEDIATYYCFQYSHVPWTFGQGTKLQITRTVAAPSVFIFPPSDEQLKSGTASVVCLLNNFYPREAKVQWKVDNALQSGNSQESVTEQDSKDSTYSLSSTLTLSKADYEKHKVYACEVTHQGLSSPVTKSFNRGEC
In the case of B12, the Kd [1] is reported as 0.954 nM and the Kd (EGFRvIII) is reported as 1.16 nM.

B13: SI-95X51 (antibody)
chain 1: not shown
chain 2: DIVMTQSPSSVSLSLGDRVTITCHSSQDINSNIGWLQQKPGKAFKGLIYHGTNLDDGVPSRFSGSGSGADYTLTISSLQAEDFATYYCVQYAQFPWTFGPGTKLEIKRTVAAPSVFIFPPSDEQLKSGTASVVCLLNNFYPREAKVQWKVDNALQSGNSQESVTEQDSKDSTYSLSSTLTLSKADYEKHKVYACEVTHQGLSSPVTKSFNRGEC
For B13, the Kd [1] was 1.81 nM and the Kd (EGFRvIII) was 1.16 nM.

B14: SI-95X53 (antibody)
chain 1: not shown
chain 2: B13 chain 2
With B14 the Kd [1] was 18.2 nM and the Kd (EGFRvIII) was 1.28 nM.

B15: SI-95X52 (antibody)
chain 1: not shown
chain 2: B13 chain 2
Work on B15 yielded a Kd [1] of 19.3 nM and a Kd (EGFRvIII) of 1.47 nM.

B16: SI-95X54 (antibody)
chain 1: not shown
chain 2: B13 chain 2
B16 gave a Kd [1] of 25.7 nM and a Kd (EGFRvIII) of 1.37 nM.

B17: SI-95X56 (antibody)
chain 1: not shown
chain 2: B13 chain 2
In the case of B17, the Kd [1] is reported as 6.88 nM and the Kd (EGFRvIII) is reported as 1.93 nM.

B18: SI-95X63 (antibody)
chain 1: not shown
chain 2: DILMTQSPSSMSVSLGDTVSITCHSSQDINSNIGWLQQRPGKSFKGLIYHGTNLDDEVPSRFSGSGSGADYSLTISSLESEDFADYYCVQYAQFPWTFGGGTKLEIKRTVAAPSVFIFPPSDEQLKSGTASVVCLLNNFYPREAKVQWKVDNALQSGNSQESVTEQDSKDSTYSLSSTLTLSKADYEKHKVYACEVTHQGLSSPVTKSFNRGEC
In the case of B18, the Kd [1] is reported as 0.497 nM and the Kd (EGFRvIII) is reported as 0.493 nM.

B19: SI-95X65 (antibody)
chain 1: not shown
chain 2: B18 chain 2
For B19, the Kd [1] was 3.07 nM and the Kd (EGFRvIII) was 0.804 nM.

B20: SI-95X44 (antibody)
chain 1: not shown
chain 2: B18 chain 2
In the case of B20, the Kd [1] is reported as 1.81 nM and the Kd (EGFRvIII) is reported as 0.466 nM.

B21: SI-95X64 (antibody)
chain 1: not shown
chain 2: B18 chain 2
For B21, the Kd [1] was 2.31 nM and the Kd (EGFRvIII) was 0.638 nM.

B22: SI-95X68 (antibody)
chain 1: not shown
chain 2: B18 chain 2
Binder B22 has a Kd [1] of 1.87 nM and a Kd (EGFRvIII) of 0.865 nM.
